# B1: eIF2Bα homodimer (eIF2Bα2) (natural protein, human)
# chain: MDDKELIEYFKSQMKEDPDMASAVAAIRTLLEFLKRDKGETIQGLRANLTSAIETLCGVDSSVAVSSGGELFLRFISLASLEYSDYSKCKKIMIERGELFLRRISLSRNKIADLCHTFIKDGATILTHAYSRVVLRVLEAAVAAKKRFSVYVTESQPDLSGKKMAKALCHLNVPVTVVLDAAVGYIMEKADLVIVGAEGVVENGGIINKIGTNQMAVCAKAQNKPFYVVAESFKFVRLFPLNQQDVPDKFKYKADTLKVAQTGQDLKEEHPWVDYTAPSLITLLFTDLGVLTPSAVSDELIKLYL
# notes: eIF2Bα (eIF2B subunit alpha), human; also called eIFBα2; eIF2Bα homodimers; source: E. coli, expressed separately (pJT075 or pMS027), purified as previously described (Tsai et al., 2018)
# Molecular target: T1, fluorescently tagged eIF2Bβδγε tetramer (eIF2Bβδγε-F) (human, UniProt P49770 2-351; Q9UI10 1-523; Q9NR50 1-452; Q13144 1-721)
# T1 construct: eIF2Bβ (eIF2B subunit beta), human; eIF2Bδ (eIF2B subunit delta), human; eIF2Bγ (eIF2B subunit gamma), human; eIF2Bε (eIF2B subunit epsilon), human; also called eIF2Bβγδε-F; tagged tetramers; source: E. coli, co-expression of pMS029 and pJT074, purified as previously described (Tsai et al., 2018); not shown: mNeonGreen with (GS)5 linker, C-terminal, kept; mScarlet-i with (GS)5 linker, C-terminal, …
# T1 sequence (P49770 2-351, stated change not applied, chain 1 of 4): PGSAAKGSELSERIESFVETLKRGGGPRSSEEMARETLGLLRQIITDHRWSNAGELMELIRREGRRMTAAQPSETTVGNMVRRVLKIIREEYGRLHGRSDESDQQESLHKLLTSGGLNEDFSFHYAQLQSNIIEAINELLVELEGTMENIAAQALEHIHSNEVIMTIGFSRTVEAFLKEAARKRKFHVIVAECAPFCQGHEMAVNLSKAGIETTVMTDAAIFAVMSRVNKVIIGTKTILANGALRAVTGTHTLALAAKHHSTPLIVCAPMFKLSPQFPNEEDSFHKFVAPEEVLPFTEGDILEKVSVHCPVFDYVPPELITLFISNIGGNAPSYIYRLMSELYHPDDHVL
# T1 sequence (Q9UI10 whole entry, stated change not applied, chain 2 of 4): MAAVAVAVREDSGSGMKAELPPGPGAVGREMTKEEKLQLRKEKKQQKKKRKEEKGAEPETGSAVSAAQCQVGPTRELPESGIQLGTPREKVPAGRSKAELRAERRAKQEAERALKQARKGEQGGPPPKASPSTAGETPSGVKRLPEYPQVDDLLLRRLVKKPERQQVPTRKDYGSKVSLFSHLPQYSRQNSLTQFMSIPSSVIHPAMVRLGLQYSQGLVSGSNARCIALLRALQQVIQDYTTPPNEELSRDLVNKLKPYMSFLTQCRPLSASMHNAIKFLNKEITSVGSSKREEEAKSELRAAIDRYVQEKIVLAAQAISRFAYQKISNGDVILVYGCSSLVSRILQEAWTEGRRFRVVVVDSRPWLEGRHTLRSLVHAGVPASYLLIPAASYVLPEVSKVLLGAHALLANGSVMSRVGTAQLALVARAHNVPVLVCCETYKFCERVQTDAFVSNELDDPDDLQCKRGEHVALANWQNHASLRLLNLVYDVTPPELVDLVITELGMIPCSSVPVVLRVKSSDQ
# T1 sequence (Q9NR50 whole entry, stated change not applied, chain 3 of 4): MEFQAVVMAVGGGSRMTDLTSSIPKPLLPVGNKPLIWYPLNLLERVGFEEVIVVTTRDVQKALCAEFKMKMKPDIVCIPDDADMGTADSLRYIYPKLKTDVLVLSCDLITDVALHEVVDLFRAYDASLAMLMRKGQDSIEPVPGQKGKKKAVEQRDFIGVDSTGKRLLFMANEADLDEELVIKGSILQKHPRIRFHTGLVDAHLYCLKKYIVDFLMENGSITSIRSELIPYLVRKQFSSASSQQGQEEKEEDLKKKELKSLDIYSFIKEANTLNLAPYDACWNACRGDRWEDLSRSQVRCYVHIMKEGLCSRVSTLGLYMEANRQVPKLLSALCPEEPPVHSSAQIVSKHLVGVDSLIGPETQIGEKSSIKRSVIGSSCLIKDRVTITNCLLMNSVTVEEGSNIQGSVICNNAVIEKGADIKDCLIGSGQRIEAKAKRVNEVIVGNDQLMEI
# T1 sequence (Q13144 whole entry, stated change not applied, chain 4 of 4): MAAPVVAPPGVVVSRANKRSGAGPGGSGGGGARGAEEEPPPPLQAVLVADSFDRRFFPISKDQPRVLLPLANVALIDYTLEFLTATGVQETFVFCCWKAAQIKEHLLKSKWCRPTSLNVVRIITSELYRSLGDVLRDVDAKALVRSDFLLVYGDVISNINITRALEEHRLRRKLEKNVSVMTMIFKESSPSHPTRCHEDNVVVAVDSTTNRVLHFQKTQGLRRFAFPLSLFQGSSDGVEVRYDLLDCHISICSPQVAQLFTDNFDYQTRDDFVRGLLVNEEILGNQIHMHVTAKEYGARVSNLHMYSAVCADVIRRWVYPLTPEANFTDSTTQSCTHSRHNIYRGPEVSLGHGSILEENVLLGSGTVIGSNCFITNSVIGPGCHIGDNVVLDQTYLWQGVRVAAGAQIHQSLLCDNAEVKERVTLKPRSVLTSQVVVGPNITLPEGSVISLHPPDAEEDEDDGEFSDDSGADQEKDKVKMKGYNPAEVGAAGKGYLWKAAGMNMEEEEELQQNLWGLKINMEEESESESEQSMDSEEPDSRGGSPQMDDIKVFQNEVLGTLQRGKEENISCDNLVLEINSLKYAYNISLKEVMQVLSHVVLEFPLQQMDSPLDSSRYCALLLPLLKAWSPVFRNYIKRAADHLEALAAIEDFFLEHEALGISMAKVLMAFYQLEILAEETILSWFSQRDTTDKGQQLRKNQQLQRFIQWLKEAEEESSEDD
# Test: FRET or BRET; in vitro equilibrium FRET (E592/E516), 50 nM eIF2Bβδγε-F with a titration of eIF2Bα2, 1 hr, room temperature, 20 mM HEPES-KOH pH 7.5, 100 mM KCl, 5 mM MgCl2, 1 mM TCEP, 0.5% DMSO
# Conditions: both partners purified
binder,measurement,value
B1,EC50,20 nM

# Reference: publication PMC7990499 (eLife, 2021)
